# From patent US20250270319A1
# Molecular target: recombinant cynomolgus CD33 protein (NovoProtein) (cynomolgus)
# Assay: ELISA, plate coated with recombinant CD33
# Chain of recombinant cynomolgus CD33 protein (NovoProtein) (cynomolgus) (chain, as listed by the source limits assumed): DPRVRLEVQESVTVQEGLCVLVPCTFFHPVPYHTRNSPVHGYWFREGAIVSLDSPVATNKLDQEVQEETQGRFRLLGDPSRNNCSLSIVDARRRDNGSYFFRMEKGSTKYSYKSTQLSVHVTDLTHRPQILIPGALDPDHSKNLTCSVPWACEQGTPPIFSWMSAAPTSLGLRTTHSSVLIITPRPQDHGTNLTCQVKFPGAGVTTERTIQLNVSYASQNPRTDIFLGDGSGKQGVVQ
row,Relative maximal binding (cyno/human),Binder
1,0.02,"anti-CD33 antibody 6C7H39 (antibody, V domains shown) VH: EVQLVESGGGLVQPGGSLRLSCAASGFTFSEYDMLWVRQAPGKGLEWVGEIRLKSNNYVTNYAASVKGRFTISRDDTKNSVYLQMNSLKTEDTGVYYCTRAGYYVPFAYWGQGTLVTVSS VL: QPVLTQSPSASASLGASVKLTCTLSSQHSTYTIEWYQQQPEKGPRYLMELKKEGSHSTGDGIPDRFSGSSSGAERYLTISSLQSEDEADYYCGVGVTIKEQFVYVFGGGTKLTVL"
2,0.04,"anti-CD33 antibody 6C7H35 (antibody, V domains shown) VH: EVQLVESGGGLVQPGGSLRLSCAASGFTFSEYAMLWVRQAPGKGLEWVGEIRLKSNNYVTNYAASVKGRFTISRDDSKNSVYLQMNSLKTEDTGVYYCTRAGYYVPFTYWGQGTLVTVSS VL: QPVLTQSPSASASLGASVKLTCTLSSQHSTYTIEWYQQQPEKGPRYLMELKKEGSHSTGDGIPDRFSGSSSGAERYLTISSLQSEDEADYYCGVGVTIKEQFVYVFGGGTKLTVL"
3,0.03,"anti-CD33 antibody 6C7H40 (antibody, V domains shown) VH: EVQLVESGGGLVQPGGSLRLSCAASGFTFSEYDMLWVRQAPGKGLEWVGEIRLKSNNYVTNYAASVKGRFTISRDDTKNSVYLQMNSLKTEDTGVYYCTRAGYYVPFAYWGQGTLVTVSS VL: QLMLTQSPSASASLGASVKLTCTLSSQHSTYTIEWYQQQPGKGPRYLMELKKEGSHSTGDGIPDRFSGSSSGAERYLTISSLQSEDEADYYCGVGHTIKEQFVYEFGGGTKLTVL"

# Second part, the binder before the results:
row,Binder,Relative maximal binding (cyno/human)
1,"anti-CD33 antibody 6C7H34 (antibody, V domains shown) VH: EVQLVESGGGLVQPGGSLRLSCAASGSTFSEYDMLWVRQAPGKGLEWVGEIRLKSNNYVTNYAASVKGRFTISRDDSKNSVYLQMNSLKTEDTGVYYCTRAGYYVPFAYWGQGTLVTVSS VL: QPMLTQSPSASASLGASVKLTCTLSSQHSTYTIEWYQQQPGKGPRYLMELKKEGSHSTGDGIPDRFSGSSSGAERYLTISSLQSEDEADYYCGVGLTIKEQFVYVFGGGTKLTVL",0.01
2,"anti-CD33 antibody 6C7H33 (antibody, V domains shown) VH: EVQLVESGGGLVQPGGSLRLSCAASGSTFSEYDMLWVRQAPGKGLEWVGEIRLKSNNYVTNYAASVKGRFTISRDDSKNSVYLQMNSLKTEDTGVYYCTRAGYYVPFAYWGQGTLVTVSS VL: QLMLTQSPSASASLGASVKLTCTLSSQHSTYTIEWYQQQPGKGPRYLMELKKEGSHSTGDGIPDRFSGSSSGAERYLTISSLQSEDEADYYCGVGHTIKEQFVYVFGGGTKLTVL",0.01
3,"anti-CD33 antibody 6C7H31 (antibody, V domains shown) VH: EVQLVESGGGLVQPGGSLRLSCAASGSTFSEYDMLWVRQAPGKGLEWVGEIRLKSNNYVTNYAASVKGRFTISRDDSKNSVYLQMNSLKTEDTGVYYCTRAGYYVPFAYWGQGTLVTVSS VL: QPVLTQSPSASASLGASVKLTCTLSSQHSTYTIEWYQQQPEKGPRYLMELKKEGSHSTGDGIPDRFSGSSSGAERYLTISSLQSEDEADYYCGVGVTIKEQFVYVFGGGTKLTVL",0.02
4,"anti-CD33 antibody 6C7H32 (antibody, V domains shown) VH: EVQLVESGGGLVQPGGSLRLSCAASGSTFSEYDMLWVRQAPGKGLEWVGEIRLKSNNYVTNYAASVKGRFTISRDDSKNSVYLQMNSLKTEDTGVYYCTRAGYYVPFAYWGQGTLVTVSS VL: QLMLTQSPSASASLGASVKLTCTLSSQHSTYTIEWYQQQPGKGPRYLMELKKEGSHSTGDGIPDRFSGSSSGAERYLTISSLQSEDEADYYCGVGHTIKEQFVYEFGGGTKLTVL",0.01
